In US20030166056A1, “Transmembrane protein as a downstream target of neurotrophin and ephrin receptor tyrosine kinases, DNA encoding same and monoclonal antibodies thereto” (New York University, priority 2000, published 2003):
“Also recorded” adds a separate entry of the source.

Columns and labels:
Assay type in all cases: cell-based
[1] = tested on: tyrosine phosphorylation of ARMS by TrkA in PC12 615 cells; assay: Tyrosine phosphorylation of ARMS in PC12 615 cells (IP with 892 antiserum, pY99 immunoblot); conditions: for Block of NGF-induced tyrosine phosphorylation of ARMS: 100 nM pretreatment; for Induction of tyrosine phosphorylation of ARMS: 100 ng/ml NGF, 50 ng/ml EGF, 10 minutes and 2 hours
Description: Human embryonic kidney (HEK) 293 and 293T cells were maintained in Dulbecco's Modified Eagle's Medium (DMEM) containing 10% fetal bovine serum (FBS) supplemented with 100 U/ml penicillin, 100 μg/ml streptomycin, and 2 mM glutamine. Native PC12 cells, TrkA-overexpressing PC12 cells (615) (Hempstead et al., 1992), and TrkB-overexpressing PC12 cells were maintained in DMEM containing 10% FBS and 5% heat-inactivated horse serum with 30 U/ml penicillin, 30 μg/ml streptomycin, 2 mM glutamine, and 200 μg/ml G418.
For transient transfection experiments, HEK293 or HEK293T cells plated at 70-80% confluency in 10 cm dishes were subjected to calcium phosphate transfection with different combinations of the mammalian expression plasmids containing cDNAs for ARMS, rat TrkA, and rat HA-tagged p75 (Khursigara et al., 1999). PC12 615 cells or transiently transfected cells were harvested and lysed in 1 ml TNE buffer (10 mM Tris (pH 8.0), 150 mM NaCl, 1 mM EDTA, and 1% NP40) containing 0.12 mg/ml phenylmethylsulfonyl fluoride (PMSF), 2 μg/ml leupeptin, 1 μg/ml aprotinin, 10 mM sodium fluoride (NaF), and 1 mM sodium orthovanadate (Na3VO4) for 30 min on ice. Following centrifugation and removal of the insoluble fraction, protein concentration of the supernatant was determined by the Bio-Rad Protein Assay reagent (Bio-Rad Laboratories, Hercules, Calif.) with bovine serum albumin as the standard. Cell lysates of equivalent protein content were incubated for 4 hours to overnight with rotation at 4° C. with either anti-pan-Trk polyclonal antibody, C14 (1.5 μg) or anti-ARMS (892) antiserum (1:100). The immune complexes were immobilized on protein A-Sepharose beads (Sigma), washed six times with ice-cold TNE buffer, boiled in SDS-sample buffer, separated by sodium dodecyl sulfate-polyacrylamide gel electrophoresis (SDS-PAGE), and transferred onto PVDF membrane (Millipore, Bedford, Mass.). Immunoblotting was carried out by first blocking membranes in TBST buffer (20 mM Tris (pH 7.5), 500 mM NaCl, 0.1% Tween-20) containing 5% BSA for pY99 and 5% nonfat milk for others, and then incubating for 2 hours at room temperature or overnight at 4° C. in TBST buffer containing one of the following primary antibodies: anti-Trk 44 serum (1:2000); anti-phosphotyrosine pY99 antibody (0.1 μg/ml) (Santa Cruz Biotechnology, Santa Cruz, Calif.); anti-ARMS (892) antiserum (1:1000). Membranes were washed with TBST buffer and then incubated with horseradish peroxidase (HRP)-conjugated goat anti-rabbit (Roche Molecular Biochemicals, Indianapolis, Ind.) or goat anti-mouse secondary antibodies (Jackson ImmunoResearch Laboratories, West Grove, Pa.) at 1:10,000 and 1:7500 dilutions, respectively. Immunoreactive protein bands were detected by enhanced chemiluminescence using ECL reagents (Amersham Pharmacia Biotech, Piscataway, N.J.).
The high degree of correspondence in the expression of ARMS and neurotrophin receptors and the endogenous association with TrkA receptors led the present inventors to postulate that ARMS might function as a target for Trk receptor phosphorylation. To investigate this possibility, cell lysates from NGF-treated PC12 cells were prepared and the ARMS protein was immunoprecipitated with anti-ARMS antiserum, 892. Phosphorylation of ARMS protein was visualized by immunoblotting with an anti-phosphotyrosine antibody, pY99. Tyrosine phosphorylation of ARMS was detectable within a minute of NGF addition (FIG. 10A, top), closely following the time course of TrkA autophosphorylation (FIG. 10A, bottom). With continued NGF treatment, the phosphorylation of ARMS persisted for 25 hours (FIG. 10B).

[2] = target: T1, association between ARMS and the TrkA receptor (Homo sapiens, UniProt P04629); assay: Coprecipitation of TrkA and ARMS in PC12 615 cells; conditions: NGF 100 ng/ml, IP anti-Trk C-14, blot anti-ARMS
T1 construct: expressed in transfected cells; host or cells: PC12 615 cells (TrkA-overexpressing PC12); ARMS is endogenous to these cells
T1 sequence (P04629 33-796): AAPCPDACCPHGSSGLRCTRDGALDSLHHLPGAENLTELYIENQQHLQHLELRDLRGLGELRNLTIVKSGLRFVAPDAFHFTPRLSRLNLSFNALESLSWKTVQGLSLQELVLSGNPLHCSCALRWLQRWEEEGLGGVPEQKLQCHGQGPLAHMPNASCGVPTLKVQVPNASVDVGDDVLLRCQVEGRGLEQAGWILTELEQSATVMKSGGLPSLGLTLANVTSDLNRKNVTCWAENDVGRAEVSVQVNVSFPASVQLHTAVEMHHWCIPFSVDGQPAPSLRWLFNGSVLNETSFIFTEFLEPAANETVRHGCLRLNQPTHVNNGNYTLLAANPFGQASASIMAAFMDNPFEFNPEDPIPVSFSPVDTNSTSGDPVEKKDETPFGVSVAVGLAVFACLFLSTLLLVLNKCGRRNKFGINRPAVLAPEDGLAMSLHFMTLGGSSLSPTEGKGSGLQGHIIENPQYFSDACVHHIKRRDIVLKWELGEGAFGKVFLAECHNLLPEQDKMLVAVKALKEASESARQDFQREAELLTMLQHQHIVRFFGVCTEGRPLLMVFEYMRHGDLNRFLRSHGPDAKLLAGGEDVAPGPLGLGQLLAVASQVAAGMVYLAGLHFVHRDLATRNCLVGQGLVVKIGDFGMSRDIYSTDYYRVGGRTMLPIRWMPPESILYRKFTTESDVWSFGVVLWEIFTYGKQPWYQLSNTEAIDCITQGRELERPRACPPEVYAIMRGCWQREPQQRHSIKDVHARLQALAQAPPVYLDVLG
T1 sequence (Q9EQG6 whole entry partner): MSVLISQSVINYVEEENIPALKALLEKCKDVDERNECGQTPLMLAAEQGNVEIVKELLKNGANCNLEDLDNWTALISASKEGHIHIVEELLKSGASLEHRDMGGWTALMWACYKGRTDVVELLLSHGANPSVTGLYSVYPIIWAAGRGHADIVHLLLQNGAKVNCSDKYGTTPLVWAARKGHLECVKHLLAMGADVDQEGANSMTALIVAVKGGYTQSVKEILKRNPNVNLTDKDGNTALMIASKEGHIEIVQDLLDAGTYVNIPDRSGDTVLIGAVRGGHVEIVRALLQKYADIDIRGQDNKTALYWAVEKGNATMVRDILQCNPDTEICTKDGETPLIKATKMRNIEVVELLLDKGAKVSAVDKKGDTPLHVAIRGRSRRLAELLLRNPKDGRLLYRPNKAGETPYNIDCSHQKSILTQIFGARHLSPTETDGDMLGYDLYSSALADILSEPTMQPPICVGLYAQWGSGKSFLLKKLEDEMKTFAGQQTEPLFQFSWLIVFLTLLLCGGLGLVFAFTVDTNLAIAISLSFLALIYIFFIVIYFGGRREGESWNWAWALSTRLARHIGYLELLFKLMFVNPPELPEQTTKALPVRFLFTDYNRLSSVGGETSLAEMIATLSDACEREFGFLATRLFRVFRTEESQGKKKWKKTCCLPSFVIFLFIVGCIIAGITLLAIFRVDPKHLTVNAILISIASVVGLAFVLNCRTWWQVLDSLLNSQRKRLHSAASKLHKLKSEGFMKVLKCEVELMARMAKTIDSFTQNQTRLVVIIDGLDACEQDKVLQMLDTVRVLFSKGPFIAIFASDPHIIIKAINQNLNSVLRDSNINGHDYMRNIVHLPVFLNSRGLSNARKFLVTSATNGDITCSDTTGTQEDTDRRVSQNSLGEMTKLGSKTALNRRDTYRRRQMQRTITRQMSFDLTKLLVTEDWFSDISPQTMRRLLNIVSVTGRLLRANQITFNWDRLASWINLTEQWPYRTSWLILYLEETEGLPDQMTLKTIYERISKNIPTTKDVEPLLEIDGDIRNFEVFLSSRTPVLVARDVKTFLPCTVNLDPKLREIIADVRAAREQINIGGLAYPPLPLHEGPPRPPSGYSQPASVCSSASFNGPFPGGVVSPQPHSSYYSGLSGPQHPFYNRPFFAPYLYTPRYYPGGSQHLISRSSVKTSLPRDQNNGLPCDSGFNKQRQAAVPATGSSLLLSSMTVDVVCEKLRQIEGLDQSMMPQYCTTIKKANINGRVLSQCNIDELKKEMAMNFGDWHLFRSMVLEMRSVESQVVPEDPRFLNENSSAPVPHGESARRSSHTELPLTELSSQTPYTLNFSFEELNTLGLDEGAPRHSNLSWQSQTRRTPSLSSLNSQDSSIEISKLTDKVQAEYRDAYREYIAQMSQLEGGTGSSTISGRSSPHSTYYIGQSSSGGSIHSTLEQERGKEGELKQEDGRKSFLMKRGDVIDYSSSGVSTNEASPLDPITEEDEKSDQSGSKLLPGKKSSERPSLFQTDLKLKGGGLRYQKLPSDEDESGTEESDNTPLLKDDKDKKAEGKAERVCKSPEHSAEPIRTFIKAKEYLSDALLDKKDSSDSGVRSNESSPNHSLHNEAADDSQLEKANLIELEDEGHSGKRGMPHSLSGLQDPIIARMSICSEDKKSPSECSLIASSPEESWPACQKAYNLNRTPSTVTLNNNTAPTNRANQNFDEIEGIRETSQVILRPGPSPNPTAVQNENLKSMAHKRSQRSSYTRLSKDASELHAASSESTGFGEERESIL
Description: (§1) FIGS. 9A-9D show coprecipitation of TrkA and ARMS (FIG. 9A) and colocalization of TrkA and ARMS (FIGS. 9B-9D). In FIG. 9A, PC12 615 cells were treated for 10 minutes and 25 hours with NGF (100 ng/ml). Lysates were prepared and subjected to immunoprecipitation with anti-Trk C-14 antibody, followed by immunoblot with anti-ARMS antibody. Normal rabbit IgG was used as a negative control. In FIGS. 9B-9D, immunofluorescence analysis of ARMS and TrkA receptor in sympathetic neurons is shown. SCG sympathetic neurons were grown in the presence of 150 ng/ml NGF, fixed and immunostained as described in the Methods section of Example 1. The ARMS protein and the TrkA receptor were subjected to double immunostaining using an anti-ARMS antiserum (FIG. 9B) and an anti-Trk B-3 (FIG. 9C) monoclonal antibody and analyzed by confocal microscopy. […]
(§2) For transient transfection experiments, HEK293 or HEK293T cells plated at 70-80% confluency in 10 cm dishes were subjected to calcium phosphate transfection with different combinations of the mammalian expression plasmids containing cDNAs for ARMS, rat TrkA, and rat HA-tagged p75 (Khursigara et al., 1999). […] Following centrifugation and removal of the insoluble fraction, protein concentration of the supernatant was determined by the Bio-Rad Protein Assay reagent (Bio-Rad Laboratories, Hercules, Calif.) with bovine serum albumin as the standard. […]

[3] = target: T2, association between ARMS and the TrkA receptor; assay: Coprecipitation of TrkA and ARMS in PC12 615 cells; conditions: NGF 100 ng/ml
T2 construct: expressed in transfected cells; host or cells: PC12 615 cells (TrkA-overexpressing PC12); ARMS is endogenous to these cells
T2 sequence (P04629 33-796): as the sequence (P04629 33-796) above
T2 sequence (Q9EQG6 whole entry partner): as the sequence (Q9EQG6 whole entry partner) above
Description: as §1, §2

[4] = tested on: distribution of ARMS in hippocampal neurons and PC12 cells; assay: Immunofluorescence analysis of ARMS distribution; conditions: confocal immunofluorescence with antibody 892
Description: FIGS. 16A and 16B show a PC12 Immunofluorescence analysis. PC12 cells with (FIG. 16A) or without (FIG. 16B) NGF treatment cultured in Lab-Tek chamber slides (Nalge Nunc International) coated with collagen and poly-L-lysine were fixed with paraformaldehyde and permeablized with cold methanol. Cells were blocked with PBS containing 10% FCS and incubated with purified antibody (3 μg/ml) against the C-terminus of ARMS protein, 892 (Example 1). Primary antibodies were visualized using fluorescence-conjugated secondary antibodies (FITC-conjugated goat anti-rabbit IgG; Jackson Laboratories).
FIGS. 17A-17F show immunolocalization of ARMS and VAMP-2, a synaptic vesicle marker, in hippocampal neurons. Primary cultures of hippocampal neurons were obtained from rats E17-19 and maintained with Neurobasal medium (Gibco) supplemented with B-27 and 0.4 mM glutamine in Lab-Tek chamber slides (Nalge Nunc International) coated with poly-L-lysine. […] Primary antibodies were detected using fluorescence-conjugated secondary antibodies (FITC-conjugated goat anti-rabbit IgG and rhodamine-conjugated goat anti-mouse IgG (Jackson Laboratories)). […]

Molecule: COC(=O)[C@@]1(O)C[C@H]2O[C@]1(C)n1c3ccccc3c3c4c(c5c6ccccc6n2c5c31)C(=O)NC4 [K252a, reference compound]
- Block of NGF-induced tyrosine phosphorylation of ARMS ([1]; PC12 615 cells, NGF treatment): potently blocked
- Block of NGF-induced tyrosine phosphorylation of ARMS ([1]; PC12 615 cells, NGF treatment, listed as K-252a): completely abolished

Molecule: insulin
- Induction of tyrosine phosphorylation of ARMS ([1]; PC12 615 cells): not elicited

B1: NGF: neurotrophin, ligand of TrkA; obtained from Harlan (protein, UniProt P01139 122-241, looked up)
Beta-nerve growth factor: SSTHPVFHMGEFSVCDSVSVWVGDKTTATDIKGKEVTVLAEVNINNSVFRQYFFETKCRASNPVESGCRGIDSKHWNSYCTTTHTFVKALTTDEKQAAWRFIRIDTACVCVLSRKATRRG
- Persistence of ARMS-TrkA association after treatment [2]: 25 h
- Association between ARMS and TrkA receptor [3]: NGF-dependent association
- Time to detectable ARMS phosphorylation ([1]; PC12 615 cells, NGF treatment): ≤ 1 min
- Induction of tyrosine phosphorylation of ARMS ([1]; PC12 615 cells): considerably more robust; also recorded: specifically induced
- Time of peak ARMS phosphorylation ([1]; PC12 cells, NGF treatment): ≤ 10 min
- Change in distribution of ARMS [4]: dramatic change in distribution; also recorded: localized at neurite tips
